We go through twelve substances from FireProtDB (doi:10.1093/protein/gzu024).

For one data set the following is noted: Homo sapiens; pH 7.4; 23 °C; GdnSCN; fluorescence; Potassium phosphate buffer; NaCl; transition: 2; reversible: yes; structure 1TEN.
Turning to “Tenascin, P24821 T888C E870C I833C S875C”, the denaturant m value stood at 4.17 kcal/mol/M, the “denaturant midpoint (higher = more stable)” value amounted to 1.79 M and the unfolding free energy is 7.44 kcal/mol.

Still in this data set, the particulars now being: Homo sapiens; pH 7.4; Thermal; DSC; Potassium phosphate buffer; NaCl; transition: 2; reversible: yes; structure 1TEN.
As for Tenascin, P24821 A885V, the Tm was found to be 59.8 °C and the “change of melting temperature, mutant - wild type (higher = more stable)” value (“change of melting temperature, mutant” below) came out at 1.1 °C.
For the substance Tenascin, P24821 D850K, the midpoint of thermal melting (Tm) stood at 63.7 °C and the “change of melting temperature, mutant” value was found to be 5 °C.
Take Tenascin, P24821 E887I: the midpoint of thermal melting (Tm) came out at 69.9 °C and the “change of melting temperature, mutant” value was determined as 11.2 °C.
On to Tenascin, P24821 E887I T890K, for which the Tm is 74.9 °C and the “change of melting temperature, mutant” value came out at 16.2 °C.
Tenascin, P24821 E887I T890K D850K: the midpoint of thermal melting (Tm) was 80.5 °C and the “change of melting temperature, mutant” value was 21.8 °C.
Regarding “Tenascin, P24821 E887I T890K D850K I833F”, the melting temperature (Tm) was determined as 82.6 °C and the “change of melting temperature, mutant” value was 23.9 °C.
Take Tenascin, P24821 I833F: the Tm worked out at 61 °C and the “change of melting temperature, mutant” value was 2.3 °C.
In the case of Tenascin, P24821 L820K, the melting temperature (Tm) is 56.7 °C and the “change of melting temperature, mutant” value was -2 °C.
Regarding Tenascin, P24821 Q808K, the Tm came out at 59.9 °C and the “change of melting temperature, mutant” value turned out to be 1.2 °C.
Consider “Tenascin, P24821 T888C E870C I833C S875C”, for which the Tm is 80.6 °C.
Take Tenascin, P24821 T890K: the melting temperature (Tm) was found to be 63.9 °C and the “change of melting temperature, mutant” value was 5.2 °C.
Take Tenascin, P24821 V811C I821C: the midpoint of thermal melting (Tm) was 50.6 °C.

As usually defined, the Tm is the temperature at which the thermal transition is half complete.
